Experimental data from patent publication US20250043022A1 (JIANGSU HENGRUI PHARMACEUTICALS, published 2025).
Residue numbers refer to the chain shown, from its start.

B1: hu50H1L2 (antibody, human IgG1, kappa)
heavy: not shown
light: DVFMTQSPLSLPVTPGEPASISCRSSQSILHSNGNTYLEWYLQKPGQSPQLLIYRVSNRFSGVPDRFSGSGSGTDFTLKISRVEAEDVGVYYCFQGLHVPPTFGQGTKLEIKRTVAAPSVFIFPPSDEQLKSGTASVVCLLNNFYPREAKVQWKVDNALQSGNSQESVTEQDSKDSTYSLSSTLTLSKADYEKHKVYACEVTHQGLSSPVTKSFNRGEC
notes: also called hu50L2H1
B2: PL-12 (bispecific antibody)
chain 1: not shown
chain 2: DIVLTQSPASLAVSPGQRATITCRASESVSIHGTHLMHWYQQKPGQPPKLLIYAASKLESGVPARFSGSGSGTDFTLTINPVEAEDTANYYCQQSFEDPLTFGQGTKLEIKRTVASGIPPKIECLPIDISIDEGKCLTVASAFTGEPTPEVTWSTGGRKIHSQEQGRFHIENTDDSTTLTIKDVQKQDGGLYTLTLRNEFGSDSATVNIHIRSI
chain 3: not shown
chain 4: not shown
B3: PL-9 (bispecific antibody)
chain 1: not shown
chain 2: B2 chain 2 with R112G, T113G, V114G, A115G
chain 3: not shown
chain 4: not shown
B4: PL-19 (bispecific antibody)
chain 1: not shown
chain 2: B2 chain 2 with C136V, A142C
chain 3: not shown
chain 4: not shown
B5: PL-7 (bispecific antibody)
chain 1: not shown
chain 2: B2 chain 2 with R112G, T113G, V114G, A115G, C136V, A142C
chain 3: not shown
chain 4: not shown
B6: PL-11 (bispecific antibody)
chain 1: not shown
chain 2: B2 chain 2 with C136V
chain 3: not shown
chain 4: not shown
B7: PL-6 (bispecific antibody)
chain 1: not shown
chain 2: B2 chain 2 with R112G, T113G, V114G, A115G
chain 3: not shown
chain 4: not shown
B8: PL-4 (bispecific antibody)
chain 1: not shown
chain 2: B2 chain 2 with R112G, T113G, V114G, A115G, C136V, A142C
chain 3: not shown
chain 4: not shown
B9: PL-18 (bispecific antibody)
chain 1: not shown
chain 2: B2 chain 2
chain 3: not shown
chain 4: not shown
B10: PL-1 (bispecific antibody)
chain 1: not shown
chain 2: B2 chain 2 with R112G, T113G, V114G, A115G, C136V, S176L, T180I
chain 3: not shown
chain 4: not shown
B11: PL-13 (bispecific antibody)
chain 1: not shown
chain 2: B2 chain 2 with C136V, A142C
chain 3: not shown
chain 4: not shown
B12: PL-3 (bispecific antibody)
chain 1: not shown
chain 2: B2 chain 2 with R112G, T113G, V114G, A115G
chain 3: not shown
chain 4: not shown
B13: PL-2 (bispecific antibody)
chain 1: not shown
chain 2: B2 chain 2 with R112G, T113G, V114G, A115G, C136V
chain 3: not shown
chain 4: not shown
B14: PL-15 (bispecific antibody)
chain 1: not shown
chain 2: B2 chain 2
chain 3: not shown
chain 4: not shown
B15: PL-5 (bispecific antibody)
chain 1: not shown
chain 2: B2 chain 2 with R112G, T113G, V114G, A115G, C136V
chain 3: not shown
chain 4: not shown
B16: PL-10 (bispecific antibody)
chain 1: not shown
chain 2: B2 chain 2 with R112G, T113G, V114G, A115G, C136V, A142C
chain 3: not shown
chain 4: not shown
B17: PL-14 (bispecific antibody)
chain 1: not shown
chain 2: B2 chain 2 with C136V
chain 3: not shown
chain 4: not shown
B18: PL-17 (bispecific antibody)
chain 1: not shown
chain 2: B2 chain 2 with C136V
chain 3: not shown
chain 4: not shown
B19: PL-8 (bispecific antibody)
chain 1: not shown
chain 2: B2 chain 2 with R112G, T113G, V114G, A115G, C136V
chain 3: not shown
chain 4: not shown
B20: 2-F2 (bispecific antibody)
heavy 1: not shown
light 1: EIVLTQSPDFQSVTPKEKVTITCSASSSVSHMYWYQQKPDQSPKLLIYRTSNLASGVPSRFSGSGSGTDFTLTINSLEAEDAATYYCQQYHSYPLMFGQGTKLEIKRTVAAPSVFIFPPSDEQLKSGTASVVCLLNNFYPREAKVQWKVDNALQSGNSQESVTEQDSKDSTYSLSSTLTLSKADYEKHKVYACEVTHQGLSSPVTKSFNRGEC
heavy 2: not shown
light 2: not shown
B21: hu71H3L2 (antibody, human IgG1, kappa)
heavy: not shown
light: DVVVTQTPLSLPVTPGEPASISCRSSQSLVHSYGNTYLHWYLQKPGQSPQLLIYKVSNRFSGVPDRFSGSGSGTDFTLKISRVEAEDVGVYYCSQTTHVPWTFGGGTKVEIKRTVAAPSVFIFPPSDEQLKSGTASVVCLLNNFYPREAKVQWKVDNALQSGNSQESVTEQDSKDSTYSLSSTLTLSKADYEKHKVYACEVTHQGLSSPVTKSFNRGEC
notes: also called hu71L2H3
B22: Chi13 (antibody, human IgG1, kappa, V domains shown)
VH: QVQLKESGPGLVAPSQSLSITCTVSGFSLTNYAISWVRQPPGKGLEWLGVIWTGGGTHYNSALKSRLSISKDNSKSQVFLKMNSLQTDDTARYYCARKGNYYGSSLYYYAMNYWGQGTSVTVSS
VL: DIQMTQTTSSLSASLGDRVTISCRASQDISNYLNWYQQKPDGTVKLLIYYTSRLQSGVPSRFSGSGSGTDYSLSISNLEQEDIATYFCQQGDTLPYTFGGGTKLEIRT
notes: chimeric antibody, hIgG1/kappa
B23: hu13H2L2 (antibody, human IgG1, kappa, V domains shown)
VH: EVTLKESGPVLVKPTETLTLTCTVSGFSLSNYAISWIRQPPGKALEWLGVIWTGGGTHYNSALKSRLTISKDTSKSQVVLTMTNMDPVDTARYYCARKGNYYGSSLYYYAMNYWGQGTTVTVSS
VL: DIQMTQSPSSLSASVGDRVTITCRASQDISNYLNWYQQKPDGAPKLLIYYTSRLQSGVPSRFSGSGSGTDYTLTISSLQPEDFATYYCQQGDTLPYTFGGGTKVEIKR
B24: hu13H2L3 (antibody, human IgG1, kappa, V domains shown)
VH: B23 VH
VL: B23 VL with A43T, P44V
B25: hu13H3L1 (antibody, human IgG1, kappa, V domains shown)
VH: B23 VH with S30T, A44G, T73N
VL: B23 VL with D41G, G42K, Y71F
B26: hu13H1L3 (antibody, human IgG1, kappa, V domains shown)
VH: B23 VH with G49A, R92T
VL: B23 VL with A43T, P44V
B27: hu13H1L1 (antibody, human IgG1, kappa, V domains shown)
VH: B23 VH with G49A, R92T
VL: B23 VL with D41G, G42K, Y71F
B28: hu13H1L2 (antibody, human IgG1, kappa, V domains shown)
VH: B23 VH with G49A, R92T
VL: B23 VL
B29: hu13H3L2 (antibody, human IgG1, kappa, V domains shown)
VH: B23 VH with S30T, A44G, T73N
VL: B23 VL
B30: hu13H2L1 (antibody, human IgG1, kappa, V domains shown)
VH: B23 VH
VL: B23 VL with D41G, G42K, Y71F
B31: hu13H3L3 (antibody, human IgG1, kappa, V domains shown)
VH: B23 VH with S30T, A44G, T73N
VL: B23 VL with A43T, P44V

What was measured:
[1] = molecular target: T1, human PSMA antigen (R&D SYSTEM, 4234-ZN-010) (human, UniProt Q04609 44-750); assay: ELISA, plate-bound PSMA antigen
T1 construct: bought antigen
Protocol: To test the ability of the PSMA-targeting humanized antibodies of the present disclosure to bind to PSMA antigen, the ELISA method was used in this test example to measure the binding of the PSMA-targeting humanized antibodies to human PSMA antigen (purchased from R&D SYSTEM, 4234-ZN-010). The specific steps are as follows: A 96-well plate was coated with PSMA antigen at 1 μg/well and placed at 4° C. overnight. After the supernatant was discarded, the plate was blocked with 5% skim milk for 2 h. Different concentrations of humanized antibodies were prepared using 1% BSA. The initial concentration was 10 μg/mL and was serially diluted 4-fold to obtain 12 concentrations. After the blocked 96-well plate was washed twice, the […] was added, and the plate was incubated at 4° C. for 1 h. After four washes, the plate was incubated with Strepidation-HRP secondary antibody (1:10,000) at 4° C. for 1 h. After color development with TMB, the reaction was stopped with 0.1 M sulfuric acid.

[2] = molecular target: T2, human PSMA on cells (Cho-hPSMA, CHO-K1 cells overexpressing full-length human PSMA) (human, UniProt Q04609 1-750); assay: cell ELISA (OD450), Cho-hPSMA cells
T2 construct: whole, on cells; also called cell surface PSMA; PSMA-expressing Lncap cells
Protocol: Experiment 2: Cells were cultured and inoculated onto a cell plate using the same method as in Experiment 1. The antibodies were serially diluted, and the antibody solutions were added to the cell plate at 100 μL/well. The plate was incubated at 4° C. for 1 h and then washed. An HRP-Goat Anti-human IgG (H+L) secondary antibody dilution (1:8000) was added to the cell plate at 100 μL/well, and the plate was incubated at 4° C. for 1 h and then washed by centrifugation. After color development with TMB, the reaction was stopped with 0.1 M sulfuric acid, and OD450 values were measured.

[3] = molecular target: hCTLA4 (human, UniProt P16410 36-161); assay: ELISA
[4] = molecular target: hPDL1 (human, UniProt Q9NZQ7 19-238); assay: ELISA
[5] = molecular target: T2, human PSMA on cells (Cho-hPSMA, CHO-K1 …); assay: cell-based or functional assay
[6] = molecular target: T2, human PSMA on cells (Cho-hPSMA, CHO-K1 …); assay: flow cytometry, Cho-hPSMA cells
Protocol: The binding activity of antibodies to the stably transfected cell strain Cho-hPSMA, which overexpresses human PSMA, was measured by flow cytometry in this test example. The full-length gene encoding human PSMA was cloned into the mammalian cell expression vector pCDH. HEK293T cells (ATCC® CRL-11268) were co-transfected with three plasmids-pVSV-G, pCMV-dR8.91, and pCDH-human PSMA- to package viruses. After 48 h of transfection, viruses were collected to infect CHO-K1 cells.
Experiment 1: Cho-hPSMA was cultured in F12 medium with 10% FBS. The medium to which cells were inoculated was incubated in a 37° C., 5% CO₂ incubator for 2 days, and cells were added to a cell plate at 1×10⁵ cells/well and washed by centrifugation. Antibodies were serially diluted, and the antibody solutions were added to the cell plate at 100 μL/well. The plate was incubated at 4° C. for 1 h and then washed. An AF488-Goat Anti-human IgG Fc fluorescent secondary antibody dilution (1:400) was added to the cell plate at 100 μL/well, and the plate was incubated at 4° C. for 1 h and then washed. PBS was added to the cell plate at 100 μL/well before plate reading.

Chain of hPDL1 (Q9NZQ7 19-238 limits assumed): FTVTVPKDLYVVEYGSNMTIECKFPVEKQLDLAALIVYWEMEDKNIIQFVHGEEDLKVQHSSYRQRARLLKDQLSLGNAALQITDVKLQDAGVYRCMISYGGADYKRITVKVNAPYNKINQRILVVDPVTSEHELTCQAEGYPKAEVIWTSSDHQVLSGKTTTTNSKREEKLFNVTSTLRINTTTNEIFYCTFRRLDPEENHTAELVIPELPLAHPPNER
T2 sequence (Q04609 whole entry): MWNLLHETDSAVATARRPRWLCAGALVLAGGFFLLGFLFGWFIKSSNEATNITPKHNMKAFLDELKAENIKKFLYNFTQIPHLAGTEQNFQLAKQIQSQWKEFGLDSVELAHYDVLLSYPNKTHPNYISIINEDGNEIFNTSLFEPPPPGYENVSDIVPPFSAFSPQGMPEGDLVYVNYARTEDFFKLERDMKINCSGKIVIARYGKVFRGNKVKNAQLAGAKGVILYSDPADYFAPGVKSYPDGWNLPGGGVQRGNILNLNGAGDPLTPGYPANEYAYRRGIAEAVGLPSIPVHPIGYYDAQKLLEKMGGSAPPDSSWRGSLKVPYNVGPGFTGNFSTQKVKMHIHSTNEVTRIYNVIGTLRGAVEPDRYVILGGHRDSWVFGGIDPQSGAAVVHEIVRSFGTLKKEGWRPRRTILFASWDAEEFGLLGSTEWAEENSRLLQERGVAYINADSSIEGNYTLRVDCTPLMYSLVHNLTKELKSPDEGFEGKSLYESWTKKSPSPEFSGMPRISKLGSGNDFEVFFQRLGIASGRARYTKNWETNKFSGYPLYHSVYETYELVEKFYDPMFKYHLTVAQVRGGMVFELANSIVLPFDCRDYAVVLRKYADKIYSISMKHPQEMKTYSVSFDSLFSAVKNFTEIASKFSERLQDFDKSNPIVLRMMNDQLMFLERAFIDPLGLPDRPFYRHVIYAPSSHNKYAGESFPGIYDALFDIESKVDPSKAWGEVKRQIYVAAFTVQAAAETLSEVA
T1 sequence (Q04609 44-750 limits assumed): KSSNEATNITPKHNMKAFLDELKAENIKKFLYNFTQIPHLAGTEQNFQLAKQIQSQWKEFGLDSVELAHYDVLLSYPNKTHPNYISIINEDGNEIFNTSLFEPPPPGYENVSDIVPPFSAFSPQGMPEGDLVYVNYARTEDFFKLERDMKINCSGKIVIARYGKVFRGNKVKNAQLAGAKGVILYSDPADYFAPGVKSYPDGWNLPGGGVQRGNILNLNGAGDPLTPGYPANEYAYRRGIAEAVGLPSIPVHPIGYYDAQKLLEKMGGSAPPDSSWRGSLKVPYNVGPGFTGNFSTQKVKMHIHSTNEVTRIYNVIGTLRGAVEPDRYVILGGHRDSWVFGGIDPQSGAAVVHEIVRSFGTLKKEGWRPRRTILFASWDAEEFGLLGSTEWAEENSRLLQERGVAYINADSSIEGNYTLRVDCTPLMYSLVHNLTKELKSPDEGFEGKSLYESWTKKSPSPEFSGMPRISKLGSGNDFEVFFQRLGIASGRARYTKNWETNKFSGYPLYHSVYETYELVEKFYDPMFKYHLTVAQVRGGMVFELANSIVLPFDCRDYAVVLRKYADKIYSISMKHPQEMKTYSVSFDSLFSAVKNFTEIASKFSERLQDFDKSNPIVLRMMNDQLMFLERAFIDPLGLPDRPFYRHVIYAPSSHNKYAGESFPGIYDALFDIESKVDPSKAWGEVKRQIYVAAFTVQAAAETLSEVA
Chain of hCTLA4 (P16410 36-161 limits assumed): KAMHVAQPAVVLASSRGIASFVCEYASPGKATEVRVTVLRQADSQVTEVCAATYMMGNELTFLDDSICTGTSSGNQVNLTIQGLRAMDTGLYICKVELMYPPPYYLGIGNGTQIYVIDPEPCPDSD

Row | Binder | EC50 [3] | EC50 [4] | EC50 [6] | other results
1 | B1 |  |  |  | EC50 [1]: 0.0421 µg/mL; Top (maximum absorbance) [1]: 1.3 absorbance; EC50 [2]: 0.0603 µg/mL
2 | B2 | 8 nM | 0.5 nM |  | 
3 | B3 | 5.5 nM | 0.6 nM |  | 
4 | B4 | 6.5 nM | 1.6 nM |  | 
5 | B5 | 7.3 nM | 0.5 nM |  | 
6 | B6 | 5.6 nM | 0.6 nM |  | 
7 | B7 | 5.3 nM | 0.8 nM |  | 
8 | B8 | 6.5 nM | 0.7 nM |  | 
9 | B9 | 6.7 nM | 1.6 nM |  | 
10 | B10 | 16.5 nM | 1.6 nM |  | 
11 | B11 | 4.4 nM | 0.5 nM |  | 
12 | B12 | 7.9 nM | 0.6 nM |  | 
13 | B13 | 8 nM | 0.5 nM |  | 
14 | B14 | 3.2 nM | 1.4 nM |  | 
15 | B15 | 6.7 nM | 0.7 nM |  | 
16 | B16 | 6.9 nM | 0.6 nM |  | 

Row | Binder | EC50 [3] | EC50 [4] | EC50 [6] | other results
17 | B17 | 6 nM | 1.3 nM |  | 
18 | B18 | 6.2 nM | 1.4 nM |  | 
19 | B19 | 14.5 nM | 1.4 nM |  | 
20 | B20 |  |  |  | cytotoxic activity against Lncap, EC50 (LDH release, PBMC E:T 10:1, 48 h) [5]: 0.0084 nM; cytotoxic activity against Lncap, Maximum lysis rate % [5]: 48.7%
21 | B21 |  |  |  | EC50 [1]: 0.0589 µg/mL; Top (maximum absorbance) [1]: 0.952 absorbance; EC50 [2]: 0.112 µg/mL
22 | B22 |  |  | 1.21 µg/mL | EC50 [1]: 0.0409 µg/mL; Top (maximum absorbance) [1]: 2.11 absorbance
23 | B23 |  |  | 1.09 µg/mL | 
24 | B24 |  |  | 1.14 µg/mL | 
25 | B25 |  |  | 1.05 µg/mL | 
26 | B26 |  |  | 1.01 µg/mL | 
27 | B27 |  |  | 0.947 µg/mL | 
28 | B28 |  |  | 0.981 µg/mL | 
29 | B29 |  |  | 1.1 µg/mL | 
30 | B30 |  |  | 1.05 µg/mL | 
31 | B31 |  |  | 1.5 µg/mL | 
